Values quoted from earlier work as cited in article PMC7312390.

Assays:
His57 = His57 (UniProt position 57, VVTAAHCGVTT); settings: free (apo) chymotrypsin
Cys25 = Cys25 (UniProt position 158, GSCGSCWAFSA); settings: free cysteine protease (Cys/His ion pair in the apo state)

Substance | pKa (His57) | pKa (Cys25)
chymotrypsin (not stated in the article (PDB 4CHA is bovine, Bos taurus, alpha-chymotrypsin)) | 7.5 | –
papain (Carica papaya (not stated in the article; inferred)) | – | 3.3
